Source: publication PMC9574934, “Targeting the Phosphatidylserine-Immune Checkpoint with a Small-Molecule Maytansinoid Conjugate” (Journal of Medicinal Chemistry, 2022)
“Also recorded” adds a separate entry of the source.

Assays:
[1] = Description: Six-week-old male ICR mice, from the Biolasco Taiwan, were divided into groups of three and dosed at 5 mg/kg intravenously. Blood samples were drawn from each animal at time points of 0.003, 0.083, 0.25, 0.5, 1, 2, 4, 6, 8, and 24 h and stored on ice (0–4 °C). With centrifugation (3000 rpm for 15 min at 4 °C in a Beckman Model Allegra 6R centrifuge), plasma was separated from the blood and stored in frozen conditions (−20 °C). […] The mice were sacrificed, and the blood samples of 0.5 mL each and tumor samples were collected at 0.5, 2, 6, 24, 72, and 168 h after administration. Each time point group included 4 mice. Mouse blood samples were collected in EDTA tubes and centrifuged at 13,000 rpm for 5 min at 4°C for plasma collection. Plasma and the harvested tumor samples were stored at −80°C until use. Fifty microliters of mouse plasma or the sample of tumor homogenated in ddH2O with dilution ratio of 1:3 (w/v) by MiniBeadbeater-16 (BioSpec Products Inc., OK, USA) was mixed with 100 μL of acetonitrile containing 250 ng/mL BPR0L187. The mixture was vortexed for 30 s and then centrifuged at 15000g for 20 min. The supernatant was transferred to a clean tube, and 15 μL of the supernatant was injected onto LC/MS/MS. Plasma samples were analyzed by liquid chromatography tandem mass spectrometry (LC/MS/MS). […]
[2] = test system: HCC1806 triple-negative breast cancer (TNBC) xenografts
Description: (§1) Cancer cells, suspending in phenol red free medium/DPBS, were mixed with Matrigel (356237, BD Biosciences, San Jose CA, USA) in a 1:1 ratio. Human pancreatic cancer MIA PaCa-2 (1 × 10^6 cells) or triple-negative breast cancer HCC1806 (1 × 10^6cells) cells were subcutaneously inoculated to left flanks of male nude mice 6 weeks old (Biolasco, Taiwan) or female nude mice 6 weeks old by using a 1 mL syringe (needle 24G × 1 in., 0.55 × 25 mm; TERUMO). Tumor dimensions were measured twice a week with an electronic caliper (FOW54-200-777, PRO-MAX, Newton, Massachusetts, USA), and the volume of the subcutaneously growing tumor in mm^3 was calculated by the following formula: volume = (length × width[2])/2. Conjugates were formulated 10% DMA/20% Cremophor EL/70% injectable solution of 5% dextrose (D5W) for treating MIA PaCa-2 and HCC1806 xenograft tumors. […] Body weight of the mice and tumor volume were measured twice weekly.

[3] = Plasma incubation and tumor homogenate cleavage of conjugate; assay type: in vitro ADME
Excerpt: Figure 3 In vivo targeting ability, plasma stability, and in vivo biodistribution of modified zinc dipicolylamine conjugates in subcutaneous HCC1806 tumor xenografts. […] (B) In vivo detection of PS-expression in the HCC1806 tumor xenograft model. Representative IVIS images of new Zn11-794 fluorescence probe in mice.

[4] = test system: immunogenic gene expression in the TME; conditions: treated HCC tumor tissue vs vehicle
Description: (§2) In addition, a previously reported oncogene-induced, sorafenib-resistant HCC mouse model[50] was used in the current study to examine the antitumor activities of synthesized compounds. Male C57BL/6j mice 4–5 weeks old were purchased from the National Laboratory Animal Center (Taipei, Taiwan) and kept in the laboratory animal center (LAC) of NHRI. The mice received 2 μg of pCMV(CAT)T7-SB100 (Addgene #34879), 10 μg of pT/Caggs-NRASV12 (Addgene #20205), and 10 μg of pKT2/CLP-AKT-LUC plasmids through hydrodynamic injection and were monitored for tumor growth weekly using IVIS until the development of HCC in the liver. The animal study was reviewed and approved by the NHRI IACUC (Institutional Animal Care and Use Committee). HCC-bearing mice with the total flux from IVIS imaging above 1 × 10^9 photons/s were used for treatment of conjugates. […] Repetitive IVIS imaging was performed to track tumor progression, and tumor tissues of the treated HCC-bearing mice were collected at day 3, day 7, and day 14 post conjugate administrations for histological examination and RNA extraction. The tumor tissues of vehicle-treated HCC-bearing mice were collected at day 14 post treatment to serve as control samples.
The concentration (absorbance at 260 nm) and purity (A260/280 and A260/230 ratios) of the extracted RNA were measured by spectrophotometry, and the integrity of the RNA was further determined by a 2100 Bioanalyzer system (Agilent Technologies). The RNA, hybridized with barcoded probes (NanoString Technologies) provided in the nCounter Mouse PanCancer Immune Profiling panel kit, was then used for measurement of the mRNA expression of 770 genes related to immune responses. Nanostring nSolver 4.0 and nCounter advanced analysis 2.0 software (NanoString Technologies) were used for data processing, immune cell profiling, and pathway scoring according to developer’s instructions.

[5] = test system: MIA PaCa-2 human xenografts; experiment: MIA PaCa-2 xenograft antitumor efficacy; conditions: 1 mg/kg intravenously twice weekly for two weeks (Figure 4)
Description: as §1

[6] = Single intravenous dose pharmacokinetic study
Description: Six-week-old male ICR mice, from the Biolasco Taiwan, were divided into groups of three and dosed at 5 mg/kg intravenously. Blood samples were drawn from each animal at time points of 0.003, 0.083, 0.25, 0.5, 1, 2, 4, 6, 8, and 24 h and stored on ice (0–4 °C). With centrifugation (3000 rpm for 15 min at 4 °C in a Beckman Model Allegra 6R centrifuge), plasma was separated from the blood and stored in frozen conditions (−20 °C). […] The mice were sacrificed, and the blood samples of 0.5 mL each and tumor samples were collected at 0.5, 2, 6, 24, 72, and 168 h after administration. Each time point group included 4 mice. Mouse blood samples were collected in EDTA tubes and centrifuged at 13,000 rpm for 5 min at 4°C for plasma collection. Plasma and the harvested tumor samples were stored at −80°C until use. Fifty microliters of mouse plasma or the sample of tumor homogenated in ddH2O with dilution ratio of 1:3 (w/v) by MiniBeadbeater-16 (BioSpec Products Inc., OK, USA) was mixed with 100 μL of acetonitrile containing 250 ng/mL BPR0L187. The mixture was vortexed for 30 s and then centrifuged at 15000g for 20 min. The supernatant was transferred to a clean tube, and 15 μL of the supernatant was injected onto LC/MS/MS. Plasma samples were analyzed by liquid chromatography tandem mass spectrometry (LC/MS/MS). The chromatographic system Agilent 1200 series LC system and an Agilent ZORBAX Eclipse XDB-C8 column (5 μm, 3.0 × 150 mm) interfaced to an MDS Sciex API4000 tandem mass spectrometer equipped with an ESI in the positive scanning mode at 600 °C was used. Data acquisition was collected via multiple reactions monitoring (MRM). A gradient system was employed for the separation of analyte and IS. Mobile phase A was 10 mM ammonium acetate aqueous solution containing 0.1% formic acid. Mobile phase B was acetonitrile. The gradient profile was as follows: 0.0–1.1 min, 50% B; 1.2–3.7 min, 55%B–90%B; 3.8–5.0 min, 90%B–50%B. The flow rate was 1.5 mL/min. The autosampler was programmed to inject 15 μL of the sample every 5 min.

[7] = rats, 1 mg/kg i.v. once a week for 4 weeks
Description: The animal body weights were measured daily during the study period. At the end of the study on day 29, all the animals were euthanized with 100% CO2 and sacrificed for organ harvest followed by organ weight measurements and for blood sample collection followed by hematology and serum chemistry assays. Hematology and serum chemistry parameters were determined using a HEMAVET 950 automated analyzer (Drew Scientific, Santa Clara, CA, USA) and a FUJI DRI-CHEM NX500 automated analyzer (FUJIFILM, Tokyo, Japan), respectively.

[8] = test system: ovarian, skin, and oral cancer cell lines; conditions: Figure S2
[9] = test system: sorafenib-resistant hepatocellular carcinoma (HCC) model
Description: as §2

[10] = test system: HCC tumor microenvironment; conditions: HCC model
Description: as §2

**Q.** What does the source list for `CCCCCC(=O)Nc1cccc(CN(Cc2cc(CN(Cc3ccccn3)Cc3cccc(NC(=O)CCCCC)n3)cc(OCCCCN(Cc3ccc(-c4ccccc4)cc3)C(=O)COCCOCCOCC(=O)NCc3ccc(CNC(=O)CCSSCCC(=O)N(C)[C@@H](C)C(=O)O[C@H]4CC(=O)N(C)c5cc(cc(OC)c5Cl)C/C(C)=C/C=C\[C@@H](OC)[C@@]5(O)C[C@H](OC(=O)N5)[C@@H](C)[C@@H]5O[C@@]45C)cc3)c2)Cc2ccccn2)n1.O=[N+]([O-])[O-].O=[N+]([O-])[O-].O=[N+]([O-])[O-].O=[N+]([O-])[O-].[Zn+2].[Zn+2]` [Compound 40a]?
**A.** plasma stability in vivo, detection of released 14 ([1]; plasma of HCC1806 tumor-bearing mice): negligible detection of 14; 14 released from 40a in the tumor mass ([1]; tumor tissue of HCC1806 tumor-bearing mice): significant time-dependent increase; antitumor efficacy against HCC1806 TNBC xenografts ([2]; intravenous twice per week (Figure 4B)): potent antitumor efficacy; efficacy on larger HCC1806 tumors ([2]; larger (400–800 mm^3) tumors, 2.5 mg/kg once per week for three weeks): potent efficacies and shrinkage; stability in plasma incubation ([3]; plasma): stable; cleavage with tumor homogenates ([3]; tumor homogenate): readily cleaved; gene expression of CCL2 [4]: significantly elevated; gene expression of CCL5 and CXCL10 [4]: Significant increases; gene expression of STAT1 [4]: significantly elevated; T-cell, macrophage, NK cell, chemokine and receptor functions and inflammation score (gene set analysis) ([4]; n = 3): striking elevations; antitumor efficacy [5]: potent antitumor efficacies; also recorded: potent and lasting anti-MIA PaCa-2 activity; body weight change during treatment [5]: without apparent body weight loss; decrease in volume distribution (Vss) ([6]; 40a compared with conjugates 30 and 36): 5 fold; AUC(0-24 hr) Conjugate ([6]; intact conjugate, male ICR mice, 5 mg/kg intravenous): 105,599 ng/mL*hr; CL ([6]; male ICR mice, 5 mg/kg intravenous, n = 3): 0.9 mL/min/kg; Vss ([6]; male ICR mice, 5 mg/kg intravenous, n = 3, 5 mg/kg): 0.1 L/kg; AUC(0-24 hr) Drug ([6]; released payload 14, male ICR mice, 5 mg/kg intravenous of conjugate): 305 ng·h/mL; BUN and creatinine levels [7]: normal; GOT and GPT [7]: slightly increased (not significant); hematologic (leukocyte, neutrophil, lymphocyte, and platelet) parameters [7]: normal; organ weights (liver and kidneys) [7]: did not alter organ weights; potency against ovarian, skin, and oral cancer cell lines [8]: highly potent; tumor burden by bioluminescence ([9]; 1 mg/kg i.v. twice weekly for two weeks): significant decrease; activity against HCC tumor growth ([9]; 1 mg/kg injected twice weekly for two weeks): potent activity; total liver weight ([9]; 14 days after treatment): marked reduction; Ki67 expression in treated tumors ([10]; 1 mg/kg i.v.): reduction; infiltration of Gr-1+ monocytes and polymorphonuclear granulocytes and F4/80+ macrophages ([10]; IHC staining): increased infiltration; cytotoxic CD8+ T-cell infiltration ([10]; days 3, 7, and 14): significant increase
